Laboratory results published in the Human Domainome abundance scans (Beltran et al. 2025).
± gives the uncertainty stated by the source.

B1: Formin-binding protein 4, residues 200 to 261; numbered along this chain, Q8N3X1 (parent)
chain: SGWQYDTQCSLAGVGIEMGDWQEVWDENTGCYYYWNTQTNEVTWELPQYLATQVQGLQHYQP
B2: SAM and SH3 domain-containing protein 1, residues 630 to 700; numbered along this chain, O94885 (parent)
chain: GRPPQPKSVEDLLDRINLKEHMPTFLFNGYEDLDTFKLLEEEDLDELNIRDPEHRAVLLTAVELLQEYDSN

Variants of: B1
Test: abundance fitness (aPCA) (normalised: wild type 0, dead -1); higher = more abundant; growth selection in yeast, the domain comes from the species named
Conditions: Homo sapiens

Abundance fitness: each site, then its substitutions
Q61: Y -0.287 ± 0.14, R -0.101 ± 0.065, G -0.018 ± 0.069, F -0.263 ± 0.1, D -0.034 ± 0.1, P -0.201 ± 0.1, T 0.263 ± 0.086, S -0.083 ± 0.069, W -0.423 ± 0.1, M -0.16 ± 0.093, I -0.299 ± 0.12, H -0.266 ± 0.12, E 0.065 ± 0.08, N -0.108 ± 0.15, A 0.115 ± 0.064, C -0.203 ± 0.1, L -0.132 ± 0.054, K -0.046 ± 0.093
P47: K -0.274 ± 0.17, E -0.985 ± 0.22, W -1.12 ± 0.2, F -1.1 ± 0.24, A -0.842 ± 0.15, M -0.721 ± 0.13, C -1.22 ± 0.32, Y -1.11 ± 0.27, Q -1.23 ± 0.33, T -1.01 ± 0.19, V -0.583 ± 0.11, R -0.895 ± 0.11, I -1.02 ± 0.23, D -1.17 ± 0.28, S -0.95 ± 0.13, G -1.04 ± 0.15, H -1 ± 0.29
A51: Y -0.124 ± 0.16, P -0.752 ± 0.16, N -0.237 ± 0.33, L -0.323 ± 0.083, K -0.025 ± 0.12, H -0.308 ± 0.28, C -0.145 ± 0.11, Q -0.519 ± 0.13, S -0.178 ± 0.078, V -0.237 ± 0.097, D -0.388 ± 0.12, W -0.175 ± 0.091, M -0.245 ± 0.14, E -0.3 ± 0.1, R -0.087 ± 0.065, T -0.306 ± 0.13, G -0.346 ± 0.072, I -0.703 ± 0.19
Y60: I 0.153 ± 0.092, T 0.101 ± 0.081, P 0.113 ± 0.09, L 0.086 ± 0.057, F 0.124 ± 0.087, H 0.092 ± 0.099, K 0.038 ± 0.099, R 0.112 ± 0.054, V 0.099 ± 0.057, M 0.177 ± 0.081, S 0.066 ± 0.062, E 0.117 ± 0.085, W -0.068 ± 0.081, A 0.115 ± 0.068, Q 0.123 ± 0.12, N 0.01 ± 0.13, C 0.035 ± 0.077, D 0.19 ± 0.1, G 0.103 ± 0.058
E45: T -0.076 ± 0.12, K -0.069 ± 0.15, L -0.21 ± 0.069, G -0.321 ± 0.082, N -0.282 ± 0.14, H -0.338 ± 0.16, P -0.552 ± 0.15, V -0.294 ± 0.084, I -0.089 ± 0.13, R -0.165 ± 0.074, Q 0.05 ± 0.16, M -0.325 ± 0.14, W -0.598 ± 0.13, Y -0.484 ± 0.16
G56: W -0.16 ± 0.11, F -0.464 ± 0.12, C -0.255 ± 0.13, R 0.004 ± 0.066, I -0.425 ± 0.13, H -0.186 ± 0.17, L -0.209 ± 0.058, P -0.178 ± 0.089, V -0.219 ± 0.078, D 0.177 ± 0.091, T 0.015 ± 0.088, E 0.224 ± 0.086, S -0.031 ± 0.06, Y -0.401 ± 0.15, Q 0.076 ± 0.09, A -0.018 ± 0.078, M -0.367 ± 0.11, N 0.051 ± 0.12
L46: S -0.779 ± 0.12, A -0.461 ± 0.092, P -0.454 ± 0.12, E -0.525 ± 0.12, Y -0.059 ± 0.16, V -0.303 ± 0.074, T -0.229 ± 0.091, H -0.626 ± 0.35, F -0.46 ± 0.17, M -0.224 ± 0.088, R -0.467 ± 0.085, K -0.631 ± 0.12, W -0.493 ± 0.1, I -0.245 ± 0.15, Q -0.264 ± 0.14, D -1.08 ± 0.34, G -0.787 ± 0.11, C -0.309 ± 0.15, N -0.625 ± 0.4
Q48: P 0.319 ± 0.079, A -0.039 ± 0.082, Y 0.23 ± 0.13, W -0.417 ± 0.093, I -0.262 ± 0.15, D 0.02 ± 0.16, C -0.147 ± 0.092, H -0.133 ± 0.15, G -0.007 ± 0.059, L 0.043 ± 0.062, N -0.059 ± 0.17, S -0.038 ± 0.068, K 0.129 ± 0.1, M 0.085 ± 0.091, R -0.061 ± 0.063, T 0.053 ± 0.09, F -0.293 ± 0.16, E -0.024 ± 0.11, V -0.127 ± 0.072
Q53: I -0.611 ± 0.19, V -0.679 ± 0.099, K -0.188 ± 0.13, W -0.634 ± 0.22, A -0.407 ± 0.11, R -0.215 ± 0.086, E -0.588 ± 0.14, M -0.624 ± 0.14, L -0.457 ± 0.073, T -0.606 ± 0.12, F -0.621 ± 0.13, P -0.663 ± 0.15, S -0.765 ± 0.13, D -0.314 ± 0.16, C -0.738 ± 0.27, G -0.688 ± 0.12, H -0.68 ± 0.17
P62: Q -0.237 ± 0.16, Y -0.161 ± 0.23, V -0.423 ± 0.16, F -0.103 ± 0.26, M 0.218 ± 0.32, H 0.084 ± 0.32, L -0.011 ± 0.14, R -0.29 ± 0.093, K 0.194 ± 0.17, S 0.045 ± 0.11, A 0.124 ± 0.11, I -0.268 ± 0.21, C -0.006 ± 0.2, G -0.028 ± 0.11, T -0.009 ± 0.12, E -0.469 ± 0.42
Y49: I 0.081 ± 0.15, D -0.006 ± 0.11, C -0.069 ± 0.11, E 0.09 ± 0.08, A 0.022 ± 0.086, S 0.126 ± 0.065, P -0.165 ± 0.084, F 0.004 ± 0.097, T -0.007 ± 0.089, R -0.527 ± 0.088, H 0.118 ± 0.12, V -0.097 ± 0.067, N -0.162 ± 0.12, L -0.126 ± 0.062, K -0.181 ± 0.12, M -0.113 ± 0.084, W -0.266 ± 0.093
T52: M -0.218 ± 0.11, A 0.085 ± 0.071, N -0.028 ± 0.15, I 0.029 ± 0.12, G 0.038 ± 0.074, Q -0.202 ± 0.091, S 0.008 ± 0.067, R 0.034 ± 0.062, Y -0.248 ± 0.13, D 0.301 ± 0.11, V -0.011 ± 0.067, W -0.295 ± 0.097, P -0.486 ± 0.12, K 0.335 ± 0.11, L -0.064 ± 0.057
L50: G -0.767 ± 0.096, M -0.52 ± 0.13, Q -0.7 ± 0.13, N -1.06 ± 0.38, R -0.82 ± 0.091, A -0.822 ± 0.12, T -0.704 ± 0.16, C -0.45 ± 0.11, Y -0.738 ± 0.17, D -1.04 ± 0.26, E -0.488 ± 0.13, S -0.613 ± 0.094, H -0.732 ± 0.22, I -0.214 ± 0.1, P -0.741 ± 0.14, W -0.48 ± 0.11, F -0.716 ± 0.13, K -0.719 ± 0.17
Q58: Y -0.256 ± 0.16, F -0.195 ± 0.091, K 0.127 ± 0.093, A -0.019 ± 0.075, P -0.209 ± 0.11, G -0.086 ± 0.056, H -0.005 ± 0.14, W -0.421 ± 0.091, E -0.059 ± 0.088, C -0.293 ± 0.12, L -0.36 ± 0.072, N 0.083 ± 0.14, M -0.067 ± 0.086, T -0.139 ± 0.093, R -0.242 ± 0.066
L57: P -0.075 ± 0.086, W -0.349 ± 0.078, D -0.043 ± 0.12, F 0.02 ± 0.1, Y -0.315 ± 0.13, E -0.093 ± 0.087, Q 0.047 ± 0.078, K 0.312 ± 0.083, C -0.305 ± 0.12, N -0.212 ± 0.1, G -0.15 ± 0.061, H -0.084 ± 0.1, M -0.159 ± 0.086, R -0.029 ± 0.056, I -0.136 ± 0.12, S -0.084 ± 0.073, V -0.047 ± 0.063
Q55: D -0.005 ± 0.19, K -0.173 ± 0.087, M -0.102 ± 0.085, A -0.012 ± 0.084, E -0.268 ± 0.099, S -0.177 ± 0.077, V -0.173 ± 0.083, N -0.186 ± 0.19, F -0.018 ± 0.17, H -0.482 ± 0.26, T -0.18 ± 0.092, W 0.039 ± 0.081, C 0.121 ± 0.18, L -0.184 ± 0.064, Y -0.389 ± 0.16, I -0.321 ± 0.17, P -0.647 ± 0.11, R -0.12 ± 0.064
V54: Q -0.754 ± 0.16, N -0.48 ± 0.19, F -0.214 ± 0.099, Y -0.274 ± 0.17, R -0.625 ± 0.086, D -0.644 ± 0.16, K -0.589 ± 0.14, S -0.603 ± 0.092, E -0.741 ± 0.15, T -0.403 ± 0.11, P -0.741 ± 0.16, A -0.336 ± 0.088, I 0.1 ± 0.093, L -0.094 ± 0.066, M 0.055 ± 0.094, H -0.716 ± 0.19, G -0.546 ± 0.07
H59: I 0.045 ± 0.097, T 0.147 ± 0.07, K 0.188 ± 0.078, A 0.008 ± 0.073, Q 0.083 ± 0.084, N 0.033 ± 0.12, G -0.017 ± 0.076, E 0.137 ± 0.079, P -0.115 ± 0.077, R -0.125 ± 0.062, M 0.082 ± 0.067, L -0.083 ± 0.052, S -0.029 ± 0.06, F -0.062 ± 0.084, Y -0.296 ± 0.08

Variants of: B2
Test: as above
Conditions: Homo sapiens

Abundance fitness, by site and new letter:
R2: H -0.301 ± 0.085, I -0.011 ± 0.047, L -0.246 ± 0.054, D -0.137 ± 0.063, K -0.212 ± 0.05, F -0.21 ± 0.066, A -0.489 ± 0.072, M -0.442 ± 0.06, C -0.971 ± 0.13, E -0.634 ± 0.1, G -0.509 ± 0.077
G1: N 0.17 ± 0.082, C -0.067 ± 0.085, M 0.013 ± 0.098, Y 0.098 ± 0.075, R -0.203 ± 0.07, H -0.161 ± 0.12, E 0.166 ± 0.074, V -0.049 ± 0.051, A -0.064 ± 0.055, T 0.016 ± 0.087, L 0.036 ± 0.066, Q 0.109 ± 0.16, K 0.163 ± 0.096, P -0.137 ± 0.27, I 0.047 ± 0.082, D 0.195 ± 0.057
